This is an account of results in article PMC10333884, “Large‐scale phosphomimetic screening identifies phospho‐modulated motif‐based protein interactions” (Molecular Systems Biology, 2023).

“And” between values parts separate entries of the source, which are not always exact repeats. Equal values may be shown once.

The target in one assay is MAP1LC3A (human). Nature of the assay: fluorescence polarisation; displacement of a FITC-labelled probe peptide (5 nM in the measurement) from the protein domain (1-2 fold over the probe's KD) by a dilution series of unlabelled peptide; room temperature; 50 mM sodium phosphate pH 7.4; KD calculated from the displacement curve; for KPNA4 ARM one probe for each pocket.
The next assay concerns the target MAP1LC3B (human) (UniProt Q9GZQ8). The assay is described as above.
Assay [1] concerns the target GABARAPL2 (human) (UniProt P60520). Description: fluorescence polarisation. On the technique in general: In fluorescence polarisation assays a small probe gives low polarisation when free and higher when bound to something large.
Assay [2] concerns the target KPNA4 ARM ARM domain (UniProt O00629). Description: FP displacement, major-pocket FITC probe. The conditions noted are these: reference: unphosphorylated peptide.
Assay [3] deals with Clathrin N-terminal domain (NTD) (human) (UniProt Q00610). Nature of the assay: fluorescence polarisation; displacement of a FITC-labelled probe peptide (5 nM in the measurement) from the protein domain (1-2 fold over the probe's KD) by a dilution series of unlabelled peptide; room temperature; 50 mM sodium phosphate pH 7.4; KD calculated from the displacement curve; for KPNA4 ARM one probe for each pocket.
Clathrin N-terminal domain (NTD) (human), sequence (Q00610 1-364): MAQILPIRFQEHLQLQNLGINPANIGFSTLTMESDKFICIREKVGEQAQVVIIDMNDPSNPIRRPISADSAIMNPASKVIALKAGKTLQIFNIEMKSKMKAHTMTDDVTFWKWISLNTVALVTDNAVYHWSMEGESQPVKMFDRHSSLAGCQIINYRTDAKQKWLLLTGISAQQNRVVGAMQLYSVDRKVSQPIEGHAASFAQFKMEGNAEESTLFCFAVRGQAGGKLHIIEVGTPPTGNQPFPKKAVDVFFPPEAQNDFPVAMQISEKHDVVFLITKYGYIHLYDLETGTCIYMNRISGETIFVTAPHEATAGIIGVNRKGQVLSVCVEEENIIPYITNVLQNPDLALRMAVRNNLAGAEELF

Assay [4] shares this target. Nature of the assay: ITC; iTC200; peptide titrated against the protein domain in approximately 10-fold excess, 16 injections; 50 mM sodium phosphate buffer pH 7.4, 1 mM DTT; constants of single runs and their average. Background: Isothermal titration calorimetry measures the heat released or taken up as one component is titrated into another.
For assay [5] the target is unchanged. Description: fluorescence polarisation.
The target is the same in assay [6]. Nature of the assay: ITC; peptide titrated against protein domain in about 10-fold excess, 16 injections; 50 mM sodium phosphate pH 7.4, 1 mM DTT.
For assay [7] the target is unchanged. Nature of the assay: fluorescence polarisation; displacement of a FITC-labelled probe peptide (5 nM in the measurement) from the protein domain (1-2 fold over the probe's KD) by a dilution series of unlabelled peptide; room temperature; 50 mM sodium phosphate pH 7.4; KD calculated from the displacement curve; for KPNA4 ARM one probe for each pocket. The source holds these as a separate data set.

Assay [8] concerns the target KPNA4 ARM ARM domain (UniProt O00629). Description: FP displacement, minor-pocket FITC probe. The settings on record: reference: unphosphorylated peptide.
The target in a further assay is GGA1 VHS domain (human) (UniProt Q9UJY5). Description: ITC; iTC200; peptide titrated against the protein domain in approximately 10-fold excess, 16 injections; 50 mM sodium phosphate buffer pH 7.4, 1 mM DTT; constants of single runs and their average.
GGA1 VHS domain (human), sequence (Q9UJY5 17-147): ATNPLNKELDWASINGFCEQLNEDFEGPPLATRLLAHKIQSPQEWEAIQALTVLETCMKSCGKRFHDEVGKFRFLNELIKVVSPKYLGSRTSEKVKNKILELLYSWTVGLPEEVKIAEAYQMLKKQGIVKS
Another assay deals with MAP1LC3B ATG8 (human). The assay is described as above.
For assay [9], the target named is GABARAPL2 (human) (UniProt P60520). Description: fluorescence polarisation; displacement of a FITC-labelled probe peptide (5 nM in the measurement) from the protein domain (1-2 fold over the probe's KD) by a dilution series of unlabelled peptide; room temperature; 50 mM sodium phosphate pH 7.4; KD calculated from the displacement curve; for KPNA4 ARM one probe for each pocket.
GABARAPL2 (human), sequence (P60520 whole entry, the tested form may be a part): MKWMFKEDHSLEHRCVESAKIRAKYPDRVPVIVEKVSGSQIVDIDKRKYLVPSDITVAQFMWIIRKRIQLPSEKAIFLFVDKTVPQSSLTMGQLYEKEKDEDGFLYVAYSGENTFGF

The next assay addresses 14‐3‐3 theta (UniProt P27348). Nature of the assay: FP displacement of FITC probe peptide. The conditions noted are these: reference: unphosphorylated peptide; sites S375.

A word on the Kd: it is the constant that tells how readily two partners part at equilibrium. Regarding “ATG4C_(444–458), phosphomimetic (E) (from UniProt Q96DT6 444-458) (peptide)”, the figures for the Kd with MAP1LC3A (human), with MAP1LC3B (human) and with GABARAPL2 (human) [1] were 3.1 µM, 4.6 µM and 1.8 µM, respectively.

With “ATG4C_(444–458), wild‐type (from UniProt Q96DT6 444-458) (peptide)”, the Kd with MAP1LC3A (human) is 5.2 µM; with MAP1LC3B (human), 7.1 µM; with GABARAPL2 (human) [1] it was 0.8 µM.

Regarding “CDC25A 114-125 (from UniProt P30304) pS116 peptide”, the KD result with KPNA4 ARM ARM domain [2] (sites S116) is “stronger; reference 8.8 ± 0.2”.

On to “GTSE1_(692–707) peptide, unphosphorylated”, for which, in assay [3], the Kd was 100 µM.

For orientation: stoichiometry N means the number of molecules, sites or subunits per partner or assembly. For “HURP 832-846 peptide, phosphomimetic (S839 to glutamate) (from UniProt Q15398 832-846)”, the stoichiometry N in assay [4] is 0.552 and 0.557 and 0.458.

Consider “HURP_(832–846), phosphomimetic (E) (from UniProt Q15398 832-846) (peptide)”, for which the dissociation constant Kd in assay [5] is 23 µM.

Regarding “HURP_(832–846), wild‐type (from UniProt Q15398 832-846) (peptide)”, the results for the Kd in [3], in [6] and in [7] were 134 µM, 250 µM and 150 µM, respectively.

In the case of “RANBP3 114-129 (from UniProt Q9H6Z4) pS125 peptide (p+6)”, the KD result with KPNA4 ARM ARM domain [8] (sites S125) is given as “stronger; reference 68 ± 4”; with KPNA4 ARM ARM domain [2] (sites S125), “same; reference 0.15 ± 0.01”.

Regarding “RANBP3 114-129 (from UniProt Q9H6Z4) pT124 peptide (p+5)”, in the assay with KPNA4 ARM ARM domain [2] (sites T124), the KD entry is given as “weaker; reference 0.15 ± 0.01”.

For “RNF11 6-21 peptide, phosphomimetic (from UniProt Q9Y3C5 6-21)”, in the assay with GGA1 VHS domain (human), the stoichiometry N was 0.97 and 0.905.

As for “RNF11 6-21 peptide, phosphorylated (from UniProt Q9Y3C5 6-21)”, in the assay with GGA1 VHS domain (human), the stoichiometry N is 0.722 and 0.731.

For the substance “RNF11 6-21 peptide, wild-type (from UniProt Q9Y3C5 6-21)”, the stoichiometry N with GGA1 VHS domain (human) came to 0.8.

Turning to “SQSTM1 258-272 (from UniProt Q13501) phosphorylated peptide”, the KD result is “weaker; reference 14.0 ± 0.7” with KPNA4 ARM ARM domain [8] (sites S266) and “weaker; reference 0.24 ± 0.04” with KPNA4 ARM ARM domain [2] (sites S266).

For “TBK1 164-179 peptide, phosphorylated (from UniProt Q9UHD2 164-179)”, the stoichiometry N with MAP1LC3B ATG8 (human) was 1.09 and 1.17 and 0.932.

With “TBK1_(164–179), phosphomimetic (E) (from UniProt Q9UHD2 164-179) (peptide)”, the equilibrium dissociation constant (Kd) is 12.4 µM with GABARAPL2 (human) [9] and 2.1 µM with MAP1LC3B (human).

Regarding “TBK1_(164–179), phosphorylated (pS) (from UniProt Q9UHD2 164-179) (peptide)”, the dissociation constant Kd with GABARAPL2 (human) [9] is 2.8 µM.

In the case of “TBK1_(164–179), wild‐type (from UniProt Q9UHD2 164-179) (peptide)”, the Kd was 19 µM in the assay with GABARAPL2 (human) [9] and 10.5 µM in the assay with MAP1LC3B (human).

Take “TOM1 366-382 (from UniProt O60784) pS375 peptide”: the “binding against the reference” value with 14‐3‐3 theta is “gained”.

In the case of “TPD52L2_(91–106), phosphomimetic (E) (from UniProt O43399 91-106) (peptide)”, the dissociation constant Kd with MAP1LC3A (human) was 78 µM; with MAP1LC3B (human), 225 µM.

Consider “pS839 HURP_(826–846) peptide (from UniProt Q15398 826-846)”, for which the Kd in [3] was less than 3 µM.

“pS839 HURP_(832–846) (from UniProt Q15398 832-846) (peptide)”: the dissociation constant Kd in assay [3] was less than 3 µM; in [6], 5 µM.
